The target in assay [1] is T1, CD137 (human, UniProt Q07011 24-186).
T1 construct: Whole on GS-H2-huCD137 reporter cells in the reporter assays; also called 4-1BB
As to the kind of experiment: FCM or ELISA, graded. Background: ELISA stands for enzyme-linked immunosorbent assay.

For a further assay, the target named is T2, CD19 (human, UniProt P15391 20-556).
T2 construct: whole, on cells
T2 sequence (looked up): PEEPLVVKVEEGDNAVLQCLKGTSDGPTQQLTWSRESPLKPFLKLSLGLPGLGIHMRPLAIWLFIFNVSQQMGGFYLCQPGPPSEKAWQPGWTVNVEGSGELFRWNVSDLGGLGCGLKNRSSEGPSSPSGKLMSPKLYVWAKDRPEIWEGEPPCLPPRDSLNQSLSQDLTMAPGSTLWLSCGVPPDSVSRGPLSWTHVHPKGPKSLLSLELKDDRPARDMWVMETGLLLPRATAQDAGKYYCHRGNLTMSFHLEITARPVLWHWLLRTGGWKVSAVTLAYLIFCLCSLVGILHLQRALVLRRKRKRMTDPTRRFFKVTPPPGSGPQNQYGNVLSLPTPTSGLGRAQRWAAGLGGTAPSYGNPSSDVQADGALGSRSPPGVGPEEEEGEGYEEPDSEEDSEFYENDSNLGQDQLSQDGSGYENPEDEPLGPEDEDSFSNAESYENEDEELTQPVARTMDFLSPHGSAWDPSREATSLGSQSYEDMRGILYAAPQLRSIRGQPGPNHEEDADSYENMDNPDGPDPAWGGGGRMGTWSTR
As to the kind of experiment: CHO cells overexpressing CD19, graded.

Assay [2] has as its target T1, CD137. The assay can be described thus: FCM or ELISA, graded. This is another data set of the same source.

5 molecules from EP4803150A2 (Lyvgen Biopharma Holdings Limited, dated 2026) can be followed below.

Changes are numbered by the printed parent chain. Like-named read-outs stand apart in the source and are kept apart here.

B1: Ly2800 (multi-specific antibody)
chain 1: QVQLQQPGAELVKPGASVKMSCKASGYTFTSYNMHWVKQTPGRGLEWIGAIYPGNGDTSYNQKFKGKATLTADKSSSTAYMQLSSLTSEDSAVYYCARSTYYGGDWYFNVWGAGTTVTVSAASVAAPSVFIFPPSDEQLKSGTASVVCLLNNFYPREAKVQWKVDNALQSGNSQESVTEQDSKDSTYSLSSTLTLSKADYEKHKVYACEVTHQGLSSPVTKSFNRGECGGGGSGGGGSGGGGSGGGGSEVQLVESGGGLVQPGGSLRLSCAASGFTFSTYAMNWVRQAPGKGLEWVGRIRSKYNNYATYYADSVKGRFTISRDDSKNSLYLQMNSLKTEDTAVYYCVRHGNFGNSYVSWFAYWGQGTLVTVSSGGGGSDKTHTCPPCPAPELLGPSVFLFPPKPKDTLMISRTPEVTCVVVDVSHEDPEVKFNWYVDGVEVHNAKTKPREEQYNSTYRVVSVLTVLHQDWLNGKEYKCKVSNKALGAPIEKTISKAKGQPREPQVYTLPPSREEMTKNQVSLWCLVKGFYPSDIAVEWESNGQPENNYKTTPPVLDSDGSFFLYSKLTVDKSRWQQGNVFSCSVMHEALHNHYTQKSLSLSPGKGGGGSGGGGSGGGGSGGGGSQVQLVQSGAEVKKPGASVKVSCKASGYTFAGFEMHWVRQAPGQGLEWMGAIDPKTGGTDYNQKFKDRVTMTRDTSISTAYMELSRLRSDDTAVYYCARDLGYFDVWGQGTLVTVSS
chain 2: QVQLQQSGAELVRPGSSVKISCKASGYAFSSYWMNWVKQRPGQGLEWIGQIWPGDGDTNYNGKFKGKATLTADESSSTAYMQLSSLASEDSAVYFCARRETTTVGRYYYAMDYWGQGTTVTVSSASTKGPSVFPLAPSSKSTSGGTAALGCLVKDYFPEPVTVSWNSGALTSGVHTFPAVLQSSGLYSLSSVVTVPSSSLGTQTYICNVNHKPSNTKVDKKVEPKSCGGGGSGGGGSGGGGSGGGGSQAVVTQEPSLTVSPGGTVTLTCRSSTGAVTTSNYANWVQQKPGQAPRGLIGGTNKRAPWTPARFSGSLLGGKAALTITGAQAEDEADYYCALWYSNLWVFGGGTKLTVLGGGGSDKTHTCPPCPAPELLGPSVFLFPPKPKDTLMISRTPEVTCVVVDVSHEDPEVKFNWYVDGVEVHNAKTKPREEQYNSTYRVVSVLTVLHQDWLNGKEYKCKVSNKALGAPIEKTISKAKGQPREPQVYTLPPSREEMTKNQVSLSCAVKGFYPSDIAVEWESNGQPENNYKTTPPVLDSDGSFFLVSKLTVDKSRWQQGNVFSCSVMHEALHNHYTQKSLSLSPGKGGGGSGGGGSGGGGSGGGGSDIQMTQSPSSLSASVGDRVTITCRASQDIRSNLNWYQQKPGGAVKLLIYYTSRLHSGVPSRFSGSGSGTDYTLTISSLQPEDFATYFCQQSEKLPRTFGGGTKVEIR
chain 3: QIVLSQSPAILSASPGEKVTMTCRASSSVSYIHWFQQKPGSSPKPWIYATSNLASGVPVRFSGSGSGTSYSLTISRVEAEDAATYYCQQWTSNPPTFGGGTKLEIKSSASTKGPSVFPLAPSSKSTSGGTAALGCLVKDYFPEPVTVSWNSGALTSGVHTFPAVLQSSGLYSLSSVVTVPSSSLGTQTYICNVNHKPSNTKVDKKVEPKSC
chain 4: not shown
notes: CD19/CD20/CD3/CD137
Turning to B1, the binding result in the assay with CD137 [1] and with CD19 was “binds” in each case.

B2: Ly2943 (multi-specific antibody)
chain 1: B1 chain 1
chain 2: B1 chain 2 with H575R, Y576F
chain 3: B1 chain 3
chain 4: not shown
notes: CD19/CD20/CD3/CD137
Regarding B2, the binding result with CD137 [1] and with CD19 was “binds” each time.

B3: Ly2937 (multi-specific antibody)
chain 1: not shown
chain 2: QVQLVQSGAEVKKPGASVKVSCKASGYTFTSYVMHWVRQKPGQGLEWIGYINPYNEGTESTDKFKGRATMTSDKSTSTVYMELSSLRSEDTAVYYCASIYYGYEGTYFGVWGQGTLVTVSSASTKGPSVFPLAPSSKSTSGGTAALGCLVKDYFPEPVTVSWNSGALTSGVHTFPAVLQSSGLYSLSSVVTVPSSSLGTQTYICNVNHKPSNTKVDKKVEPKSCGGGGSGGGGSGGGGSGGGGSQIVLTQSPAIMSASPGEKVTMTCSASSSVSYMNWYQQKSGTSPKRWIYDTSKLASGVPAHFRGSGSGTSYSLTISGMEAEDAATYYCQQWSSNPFTFGSGTKLEINGGGGSDKTHTCPPCPAPELLGPSVFLFPPKPKDTLMISRTPEVTCVVVDVSHEDPEVKFNWYVDGVEVHNAKTKPREEQYNSTYRVVSVLTVLHQDWLNGKEYKCKVSNKALGAPIEKTISKAKGQPREPQVYTLPPSREEMTKNQVSLSCAVKGFYPSDIAVEWESNGQPENNYKTTPPVLDSDGSFFLVSKLTVDKSRWQQGNVFSCSVMHEALHNRFTQKSLSLSPGKGGGGSGGGGSGGGGSGGGGSDIQMTQSPSSLSASVGDRVTITCRASQDIRSNLNWYQQKPGGAVKLLIYYTSRLHSGVPSRFSGSGSGTDYTLTISSLQPEDFATYFCQQSEKLPRTFGGGTKVEIR
chain 3: EIVLTQSPATLSLSPGERATLSCRASSSVSYMHWYQQKPGQAPRPWIYATSNLASGIPARFSGSRSGTDYTLTISSLEPEDFAVYYCQQWSSNTLTFGGGTKVEIKRTVAAPSVFIFPPSDEQLKSGTASVVCLLNNFYPREAKVQWKVDNALQSGNSQESVTEQDSKDSTYSLSSTLTLSKADYEKHKVYACEVTHQGLSSPVTKSFNRGEC
notes: B7H3/CD3/CD137
As to B3, the binding result with CD137 [2] was “binds”.

B4: Ly2940 (bispecific antibody, human IgG1, kappa)
chain 1: QVQLVQSGAEVKKPGASVKVSCKASGYTFTSYVMHWVRQKPGQGLEWIGYINPYNEGTESTDKFKGRATMTSDKSTSTVYMELSSLRSEDTAVYYCASIYYGYEGTYFGVWGQGTLVTVSSASTKGPSVFPLAPSSKSTSGGTAALGCLVKDYFPEPVTVSWNSGALTSGVHTFPAVLQSSGLYSLSSVVTVPSSSLGTQTYICNVNHKPSNTKVDKKVEPKSCDKTHTCPPCPAPELLGPSVFLFPPKPKDTLMISRTPEVTCVVVDVSHEDPEVKFNWYVDGVEVHNAKTKPREEQYNSTYRVVSVLTVLHQDWLNGKEYKCKVSNKALGAPIEKTISKAKGQPREPQVYTLPPSREEMTKNQVSLWCLVKGFYPSDIAVEWESNGQPENNYKTTPPVLDSDGSFFLYSKLTVDKSRWQQGNVFSCSVMHEALHNHYTQKSLSLSPGKGGGGSGGGGSGGGGSGGGGSQVQLVQSGAEVKKPGASVKVSCKASGYTFAGFEMHWVRQAPGQGLEWMGAIDPKTGGTDYNQKFKDRVTMTRDTSISTAYMELSRLRSDDTAVYYCARDLGYFDVWGQGTLVTVSS
chain 2: QVQLVQSGAEVKKPGASVKVSCKASGYTFTSYVMHWVRQKPGQGLEWIGYINPYNEGTESTDKFKGRATMTSDKSTSTVYMELSSLRSEDTAVYYCASIYYGYEGTYFGVWGQGTLVTVSSASTKGPSVFPLAPSSKSTSGGTAALGCLVKDYFPEPVTVSWNSGALTSGVHTFPAVLQSSGLYSLSSVVTVPSSSLGTQTYICNVNHKPSNTKVDKKVEPKSCDKTHTCPPCPAPELLGPSVFLFPPKPKDTLMISRTPEVTCVVVDVSHEDPEVKFNWYVDGVEVHNAKTKPREEQYNSTYRVVSVLTVLHQDWLNGKEYKCKVSNKALGAPIEKTISKAKGQPREPQVYTLPPSREEMTKNQVSLSCAVKGFYPSDIAVEWESNGQPENNYKTTPPVLDSDGSFFLVSKLTVDKSRWQQGNVFSCSVMHEALHNRFTQKSLSLSPGKGGGGSGGGGSGGGGSGGGGSDIQMTQSPSSLSASVGDRVTITCRASQDIRSNLNWYQQKPGGAVKLLIYYTSRLHSGVPSRFSGSGSGTDYTLTISSLQPEDFATYFCQQSEKLPRTFGGGTKVEIR
chain 3: B3 chain 3
notes: B7H3/CD137; anti-CD137 Fv on C-terminal
B4: the binding result in the assay with CD137 [2] was “binds”.

B5: Ly2823 (multi-specific antibody)
chain 1: EVQLVESGGGLVKPGGSLKLSCEASRFTFSSYAMSWVRQTPEKRLEWVAAISGGGRYTYYPDSMKGRFTISRDNAKNFLYLQMSSLRSEDTAMYYCARHYDGYLDYWGQGTTLTVSSASTKGPSVFPLAPSSKSTSGGTAALGCLVKDYFPEPVTVSWNSGALTSGVHTFPAVLQSSGLYSLSSVVTVPSSSLGTQTYICNVNHKPSNTKVDKKVEPKSCGGGGSGGGGSGGGGSGGGGSEVQLVESGGGLVQPGGSLRLSCAASGFTFSTYAMNWVRQAPGKGLEWVGRIRSKYNNYATYYADSVKGRFTISRDDSKNSLYLQMNSLKTEDTAVYYCVRHGNFGNSYVSWFAYWGQGTLVTVSSGGGGSDKTHTCPPCPAPELLGPSVFLFPPKPKDTLMISRTPEVTCVVVDVSHEDPEVKFNWYVDGVEVHNAKTKPREEQYNSTYRVVSVLTVLHQDWLNGKEYKCKVSNKALGAPIEKTISKAKGQPREPQVYTLPPSREEMTKNQVSLWCLVKGFYPSDIAVEWESNGQPENNYKTTPPVLDSDGSFFLYSKLTVDKSRWQQGNVFSCSVMHEALHNHYTQKSLSLSPGKGGGGSGGGGSGGGGSGGGGSQVQLVQSGAEVKKPGASVKVSCKASGYTFAGFEMHWVRQAPGQGLEWMGAIDPKTGGTDYNQKFKDRVTMTRDTSISTAYMELSRLRSDDTAVYYCARDLGYFDVWGQGTLVTVSS
chain 2: EVQLVESGGGLVKPGGSLKLSCEASRFTFSSYAMSWVRQTPEKRLEWVAAISGGGRYTYYPDSMKGRFTISRDNAKNFLYLQMSSLRSEDTAMYYCARHYDGYLDYWGQGTTLTVSSASTKGPSVFPLAPSSKSTSGGTAALGCLVKDYFPEPVTVSWNSGALTSGVHTFPAVLQSSGLYSLSSVVTVPSSSLGTQTYICNVNHKPSNTKVDKKVEPKSCGGGGSGGGGSGGGGSGGGGSQAVVTQEPSLTVSPGGTVTLTCRSSTGAVTTSNYANWVQQKPGQAPRGLIGGTNKRAPWTPARFSGSLLGGKAALTITGAQAEDEADYYCALWYSNLWVFGGGTKLTVLGGGGSDKTHTCPPCPAPELLGPSVFLFPPKPKDTLMISRTPEVTCVVVDVSHEDPEVKFNWYVDGVEVHNAKTKPREEQYNSTYRVVSVLTVLHQDWLNGKEYKCKVSNKALGAPIEKTISKAKGQPREPQVYTLPPSREEMTKNQVSLSCAVKGFYPSDIAVEWESNGQPENNYKTTPPVLDSDGSFFLVSKLTVDKSRWQQGNVFSCSVMHEALHNHYTQKSLSLSPGKGGGGSGGGGSGGGGSGGGGSDIQMTQSPSSLSASVGDRVTITCRASQDIRSNLNWYQQKPGGAVKLLIYYTSRLHSGVPSRFSGSGSGTDYTLTISSLQPEDFATYFCQQSEKLPRTFGGGTKVEIR
chain 3: DIVMTQSHKFMSTSIGARVSITCKASQDVRTAVAWYQQKPGQSPKLLIYSASYRYTGVPDRFTGSGSGTDFTFTISSVQAEDLAVYYCQQHYGTPPWTFGGGTKLEIKRTVAAPSVFIFPPSDEQLKSGTASVVCLLNNFYPREAKVQWKVDNALQSGNSQESVTEQDSKDSTYSLSSTLTLSKADYEKHKVYACEVTHQGLSSPVTKSFNRGEC
notes: B7H3/CD3/CD137
As to B5, the binding result with CD137 [2] is recorded as “binds”.
